{"source": "paper PMC10372912", "about": "“Evidence for direct interaction between the oncogenic proteins E6 and E7 of high-risk human papillomavirus (HPV)” (The Journal of Biological Chemistry, 2023)", "key": {"[1]": {"molecular_target": "MBP-16E6_4C4S (human papillomavirus type 16)", "assay": "fluorescence polarisation; competition: unlabeled GGG-E7 dimer (two-fold dilutions, from 200 μM HPV16, from 150 μM HPV31) against the preformed complex of fl-E7 with 50 μM MBP-16E6_4C4S or 70 μM MBP-31E6_2C2S-LxxLL (60-80% saturation); FP assay buffer; one-site-specific binding fit"}, "[2]": {"molecular_target": "fl-16E7 (human papillomavirus type 16) (UniProt P03129)", "assay": "fluorescence polarisation; direct: 1.5-fold dilution series of MBP-E6 (or MBP) against fixed fl-E7 (350 nM HPV16, 200 nM HPV31) or 350 nM fl-16E7CR1/2; 20 mM Hepes pH 7.5, 200 mM NaCl, 1 mM TCEP, 0.005% Tween-20; one-site-specific binding fit"}, "[3]": {"molecular_target": "fl-16E7 (human papillomavirus type 16) (UniProt P03129)", "assay": "AUC; sedimentation equilibrium, 12,000 or 18,000 rpm, 20 °C, 20 mM Hepes pH 7.5, 200 mM NaCl, 1 mM TCEP; 100 μM MBP-16E6_4C4S-LxxLL, 100 μM fl-16E7, 100 μM complex (1:1 molar mixture)"}, "[4]": {"molecular_target": "fl-16E7 (human papillomavirus type 16) (UniProt P03129)", "assay": "AUC; sedimentation velocity, 40,000 rpm, 20 °C, 20 mM Hepes pH 7.5, 200 mM NaCl, 1 mM TCEP; fl-16E7 followed at 495 nm; 1:1 molar mixture and titration of MBP-16E6_4C4S-LxxLL (0-150 μM) against 100 μM fl-16E7"}, "[5]": {"molecular_target": "fl-31E7 (human papillomavirus type 31) (UniProt P17387)", "assay": "fluorescence polarisation; direct: 1.5-fold dilution series of MBP-E6 (or MBP) against fixed fl-E7 (350 nM HPV16, 200 nM HPV31) or 350 nM fl-16E7CR1/2; 20 mM Hepes pH 7.5, 200 mM NaCl, 1 mM TCEP, 0.005% Tween-20; one-site-specific binding fit"}, "[6]": {"molecular_target": "fl-16E7CR1/2 (aa 1–44) (human papillomavirus type 16) (UniProt P03129)", "assay": "fluorescence polarisation; direct: 1.5-fold dilution series of MBP-E6 (or MBP) against fixed fl-E7 (350 nM HPV16, 200 nM HPV31) or 350 nM fl-16E7CR1/2; 20 mM Hepes pH 7.5, 200 mM NaCl, 1 mM TCEP, 0.005% Tween-20; one-site-specific binding fit"}, "[7]": {"molecular_target": "MBP-16E6_4C4S (human papillomavirus type 16)", "assay": "fluorescence polarisation; competition: nonlabeled 16E7CR1/2 (aa 1-44) against the complex of 200 μM MBP-16E6_4C4S and 350 nM fl-16E7CR1/2 (60% saturation)"}, "[8]": {"molecular_target": "MBP-16E6_4C4S (human papillomavirus type 16)", "assay": "fluorescence polarisation; competition: nonlabeled 16E7CR1/2 against the fl-16E7/MBP-16E6_4C4S complex (Fig. S5)"}, "[9]": {"molecular_target": "T1, EYFP-38E7 (human papillomavirus type 38, UniProt Q80908 1-100)", "T1 construct": "Cloned in pEYFP-C1; SG linker between EYFP and E7; also called EYFP-E7 (HPV38); HPV 38E7; source: C33A, transfected, in cells; not shown: EYFP, N-terminal, kept", "T1 sequence": "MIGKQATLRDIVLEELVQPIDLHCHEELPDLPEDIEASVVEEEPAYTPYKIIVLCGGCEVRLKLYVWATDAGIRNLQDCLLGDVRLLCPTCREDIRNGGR", "assay": "FRET or BRET; flow cytometry-based FRET (FACS-FRET) in C33A cells coexpressing mTagBFP2-E6 and EYFP-E7 of the same HPV type; at least 10% FRET and at least 500 FRET-positive cells count as an interaction; three biological replicates", "details": "partners not purified"}, "[10]": {"molecular_target": "T2, EYFP-31E7 (human papillomavirus type 31, UniProt P17387 1-98)", "T2 construct": "Cloned in pEYFP-C1; SG linker between EYFP and E7; also called EYFP-E7 (HPV31); HPV 31E7; source: C33A, transfected, in cells; not shown: EYFP, N-terminal, kept", "T2 sequence": "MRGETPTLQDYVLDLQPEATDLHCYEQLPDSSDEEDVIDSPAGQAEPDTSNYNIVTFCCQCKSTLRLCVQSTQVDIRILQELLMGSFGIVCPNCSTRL", "assay": "FRET or BRET; flow cytometry-based FRET (FACS-FRET) in C33A cells coexpressing mTagBFP2-E6 and EYFP-E7 of the same HPV type; at least 10% FRET and at least 500 FRET-positive cells count as an interaction; three biological replicates", "details": "partners not purified"}, "[11]": {"molecular_target": "T3, EYFP-16E7 (human papillomavirus type 16, UniProt P03129 1-98)", "T3 construct": "Cloned in pEYFP-C1; SG linker between EYFP and E7; also called EYFP-E7 (HPV16); HPV 16E7; source: C33A, transfected, in cells; not shown: EYFP, N-terminal, kept", "T3 sequence (looked up)": "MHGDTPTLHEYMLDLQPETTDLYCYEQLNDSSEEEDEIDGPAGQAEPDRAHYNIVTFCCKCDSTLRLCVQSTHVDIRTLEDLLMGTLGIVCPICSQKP", "assay": "FRET or BRET; flow cytometry-based FRET (FACS-FRET) in C33A cells coexpressing mTagBFP2-E6 and EYFP-E7 of the same HPV type; at least 10% FRET and at least 500 FRET-positive cells count as an interaction; three biological replicates", "details": "partners not purified"}, "[12]": {"molecular_target": "MBP-31E6_2C2S-LxxLL (human papillomavirus type 31 | not stated) (UniProt P17386)", "assay": "fluorescence polarisation; competition: unlabeled GGG-E7 dimer (two-fold dilutions, from 200 μM HPV16, from 150 μM HPV31) against the preformed complex of fl-E7 with 50 μM MBP-16E6_4C4S or 70 μM MBP-31E6_2C2S-LxxLL (60-80% saturation); FP assay buffer; one-site-specific binding fit"}}}
{"molecule": "unlabeled GGG-16E7 dimer (from UniProt P03129 1-98) (natural protein)", "values": [{"measurement": "Kd", "setting": "[1]", "result": 61.9, "unit": "µM"}]}
{"molecule": "MBP-16E6_4C4S-LxxLL", "values": [{"measurement": "Kd", "setting": "[2]", "result": 46.4, "unit": "µM"}, {"measurement": "stoichiometry N (E6 per E7 (2:2 complex))", "setting": "[3]", "result": 1}, {"measurement": "percent of fl-16E7 in complex", "setting": "[4]", "result": 89, "unit": "%"}]}
{"molecule": "MBP-31E6_2C2S-LxxLL (from UniProt P17386 1-149)", "values": [{"measurement": "Kd", "setting": "[5]", "result": 59.4, "unit": "µM"}]}
{"molecule": "fl-16E7 (from UniProt P03129 1-98) (natural protein)", "values": [{"measurement": "stoichiometry N", "setting": "[3]", "result": 2}]}
{"molecule": "MBP-16E6_4C4S (natural protein)", "values": [{"measurement": "Kd", "setting": "[2]", "result": 3, "unit": "µM"}, {"measurement": "Kd", "setting": "[6]", "result": 101, "unit": "µM"}]}
{"molecule": "nonlabeled 16E7CR1/2 (aa 1–44) (from UniProt P03129 1-44) (peptide)", "values": [{"measurement": "Kd", "setting": "[7]", "result": 128, "unit": "µM"}, {"measurement": "Kd", "setting": "[8]", "result": 288, "unit": "µM"}]}
{"molecule": "mTagBFP2-38E6 (natural protein, Cloned in pmTagBFP-C1; SG linker between the fluorescent protein and the viral protein; also called mTagBFP2-E6 (HPV38); HPV 38E6; source: C33A, transfected, in cells; not shown: mTagBFP2, N-terminal, kept) MELPKPQTVQQLSDKLTVPVEDLLLPCRFCNSFLTYIELREFDYKNLQLIWTQEDFVFACCSSCAYASAQYECQQFYELTVFGREIEQVEQQTIGLIVIRCQYCLKCLDLIEKLDICCSHQAFHKVRGNWKGRCRHCKAIE", "values": [{"measurement": "percent FRET", "setting": "[9]", "result": 17.9, "unit": "%"}]}
{"molecule": "mTagBFP2-31E6 (natural protein, Cloned in pmTagBFP-C1; SG linker between the fluorescent protein and the viral protein; also called mTagBFP2-E6 (HPV31); HPV 31E6; source: C33A, transfected, in cells; not shown: mTagBFP2, N-terminal, kept) MFKNPAERPRKLHELSSALEIPYDELRLNCVYCKGQLTETEVLDFAFTDLTIVYRDDTPHGVCTKCLRFYSKVSEFRWYRYSVYGTTLEKLTNKGICDLLIRCITCQRPLCPEEKQRHLDKKKRFHNIGGRWTGRCIACWRRPRTETQV", "values": [{"measurement": "percent FRET", "setting": "[10]", "result": 16.3, "unit": "%"}]}
{"molecule": "mTagBFP2-16E6 (natural protein, human papillomavirus type 16, UniProt P03126 1-158, looked up, Cloned in pmTagBFP-C1; SG linker between the fluorescent protein and the viral protein; also called mTagBFP2-E6 (HPV16); HPV 16E6; source: C33A, transfected, in cells; not shown: mTagBFP2, N-terminal, kept) MHQKRTAMFQDPQERPRKLPQLCTELQTTIHDIILECVYCKQQLLRREVYDFAFRDLCIVYRDGNPYAVCDKCLKFYSKISEYRHYCYSLYGTTLEQQYNKPLCDLLIRCINCQKPLCPEEKQRHLDKKQRFHNIRGRWTGRCMSCCRSSRTRRETQL", "values": [{"measurement": "percent FRET", "setting": "[11]", "result": 13, "unit": "%"}]}
{"molecule": "unlabeled GGG-31E7 dimer (natural protein) GGGMRGETPTLQDYVLDLQPEATDLHCYEQLPDSSDEEDVIDSPAGQAEPDTSNYNIVTFCCQCKSTLRLCVQSTQVDIRILQELLMGSFGIVCPNCSTRL", "values": [{"measurement": "Kd", "setting": "[12]", "result": 54.2, "unit": "µM"}]}
